Test results as given in the supplement of paper PMC6755084.

B1: minF1; the commonest letter at each place (parent)
chain: GAGACCGCAACTGAAAAGTTGTTATCAGAAATGGATGGGTTGAATTTCTGCACGTAGAAGCAAAAGGC

Variants of: B1
Assay: fraction ligated after 30 min (ligated reads / total reads); higher = more ligase activity
Settings: with F1*subA RNA substrate (template-directed ligation), 42 °C
Procedure, shortened: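 Templates from an oligo pool encoding minimized ligase ribozyme variants were amplified by PCR, transcribed with T7, and purified on gels. Gel electrophoresis separated ligated from unligated RNAs, which were then reverse transcribed using barcoded primers and sequenced on a MiSeq, keeping core bases with quality ≥30. For each variant, fraction ligated equals ligated reads divided by total reads.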

Compared with T25A G34C, T25A G34T is lower in fraction ligated: 0.0033 for the first, 0.00319 for the second.

Compared with T25A G34A, C26G is higher in fraction ligated: 0.00806 for the first, 0.0466 for the second.

First: C26A
Second: C26G G37T
The fraction ligated of the first is higher: 0.121 for the first, 0.00384 for the second.

First: C26G G37C
Second: C26G G37A
The fraction ligated of the first is higher: 0.00497 for the first, 0.00254 for the second.

Compared with T25A A29T, T25A A29C is lower in fraction ligated: 0.015 for the first, 0.00458 for the second.

First: T25A A29G
Second: A24G G42A
The fraction ligated of the first is higher: 0.00957 for the first, 0.00347 for the second.

Compared with A24G G42T, A24G G42C is higher in fraction ligated: 0.000969 for the first, 0.00119 for the second.

Compared with T25A T36G, T25A T36C is lower in fraction ligated: 0.0106 for the first, 0.00785 for the second.

Going from T25A T36A to T25G G33T, the fraction ligated rises from 0.00698 to 0.0188.

Going from T25G G33A to T25G G33C, the fraction ligated falls from 0.0162 to 0.00397.

Going from A24T A43C to A24T A43G, the fraction ligated falls from 0.00315 to 0.00117.

Going from A24T A43T to T25A A44G, the fraction ligated falls from 0.00827 to 0.00172.

Going from T25A A44T to T25A A44C, the fraction ligated falls from 0.0103 to 0.00273.

First: A24C T32C
Second: A24C T32A
The fraction ligated of the first is lower: 0.00194 for the first, 0.00211 for the second.

First: A24C T32G
Second: T25G A43G
The fraction ligated of the first is higher: 0.00553 for the first, 0.00372 for the second.

Going from T25G A43T to T25G A43C, the fraction ligated falls from 0.00824 to 0.00324.

Compared with A24C T25G, A24C T25A is lower in fraction ligated: 0.0197 for the first, 0.0142 for the second.

Going from A24C T25C to C26G G34A, the fraction ligated rises from 0.0235 to 0.0747.

First: C26G G34T
Second: C26G G34C
The fraction ligated of the first is lower: 0.00574 for the first, 0.0293 for the second.

Going from T25G G42A to T25G G42T, the fraction ligated falls from 0.00421 to 0.000854.

Going from T25G G42C to T25C C26G, the fraction ligated rises from 0.004 to 0.00975.

Compared with T25C C26A, T25C C26T is higher in fraction ligated: 0.00962 for the first, 0.079 for the second.

First: C26A A31C
Second: C26A A31T
The fraction ligated of the first is lower: 0.0417 for the first, 0.0701 for the second.

First: C26A A31G
Second: T25G A29G
The fraction ligated of the first is higher: 0.102 for the first, 0.0196 for the second.

Going from T25G A29C to T25G A29T, the fraction ligated rises from 0.0105 to 0.0188.

First: A24C G37T
Second: A24C G37C
The fraction ligated of the first is higher: 0.00693 for the first, 0.00569 for the second.

First: A24C G37A
Second: T25A A35C
The fraction ligated of the first is lower: 0.00687 for the first, 0.0123 for the second.

Compared with T25A A35T, T25A A35G is lower in fraction ligated: 0.458 for the first, 0.0048 for the second.

First: T25G T36G
Second: T25G T36A
The fraction ligated of the first is higher: 0.0257 for the first, 0.0107 for the second.

Compared with T25G T36C, A24C G34T is lower in fraction ligated: 0.00768 for the first, 0.00294 for the second.

Compared with A24C G34C, A24G T32A is higher in fraction ligated: 0.00204 for the first, 0.00439 for the second.

Compared with A24G T32C, A24G T32G is higher in fraction ligated: 0.00122 for the first, 0.00185 for the second.

Compared with T25C A35G, T25C A35T is lower in fraction ligated: 0.0463 for the first, 0.009 for the second.

First: T25C A35C
Second: A24G T36C
The fraction ligated of the first is lower: 0.00531 for the first, 0.0933 for the second.

Going from A24G T36A to A24G T36G, the fraction ligated falls from 0.0103 to 0.00746.

Compared with T25G T32A, T25G T32G is higher in fraction ligated: 0.00223 for the first, 0.00886 for the second.

Compared with T25G T32C, A24T A27G is higher in fraction ligated: 0.00349 for the first, 0.0839 for the second.

Compared with A24T A27C, A24T A27T is higher in fraction ligated: 0.105 for the first, 0.171 for the second.

Compared with T25G G34C, T25G G34T is higher in fraction ligated: 0.00366 for the first, 0.0038 for the second.

Compared with T25G G34A, C26G G28C is higher in fraction ligated: 0.00816 for the first, 0.0331 for the second.

Compared with C26G G28A, C26G G28T is higher in fraction ligated: 0.0283 for the first, 0.0589 for the second.

Compared with T25C G33C, T25C G33A is higher in fraction ligated: 0.0119 for the first, 0.0508 for the second.

First: T25C G33T
Second: T25C G34T
The fraction ligated of the first is higher: 0.0306 for the first, 0.00336 for the second.

Going from T25C G34C to T25C G34A, the fraction ligated rises from 0.00188 to 0.00778.

Going from T25C A27C to T25C A27T, the fraction ligated rises from 0.113 to 0.407.

Compared with T25C A27G, C26G G33T is lower in fraction ligated: 0.209 for the first, 0.0124 for the second.

Going from C26G G33C to C26G G33A, the fraction ligated rises from 0.00704 to 0.0636.

Compared with C26A T36C, C26A T36G is higher in fraction ligated: 0.00707 for the first, 0.0133 for the second.

Compared with C26A T36A, A24T T36A is higher in fraction ligated: 0.0039 for the first, 0.0205 for the second.

Compared with A24T T36G, A24T T36C is lower in fraction ligated: 0.0114 for the first, 0.00304 for the second.

First: A24G C26T
Second: A24G C26A
The fraction ligated of the first is lower: 0.00563 for the first, 0.0171 for the second.

Going from A24G C26G to C26A A43T, the fraction ligated rises from 0.00544 to 0.00633.

Compared with C26A A43G, C26A A43C is lower in fraction ligated: 0.00987 for the first, 0.00276 for the second.

First: T25G
Second: T25A
The fraction ligated of the first is higher: 0.0165 for the first, 0.00703 for the second.

Going from T25C to C26G A30C, the fraction ligated rises from 0.0278 to 0.0436.

First: C26G A30G
Second: C26G A30T
The fraction ligated of the first is higher: 0.0544 for the first, 0.0435 for the second.

Going from A24T A35C to A24T A35G, the fraction ligated rises from 0.0024 to 0.00268.

Going from A24T A35T to T25G A30G, the fraction ligated rises from 0.00183 to 0.0222.

Compared with T25G A30C, T25G A30T is higher in fraction ligated: 0.0106 for the first, 0.0162 for the second.

Going from T25G C26T to T25G C26A, the fraction ligated rises from 0.00381 to 0.00653.

Compared with T25G C26G, T25A A43G is lower in fraction ligated: 0.00725 for the first, 0.00383 for the second.

First: T25A A43C
Second: T25A A43T
The fraction ligated of the first is lower: 0.00284 for the first, 0.00628 for the second.

Going from T25A A27C to T25A A27G, the fraction ligated falls from 0.0652 to 0.0139.

Compared with T25A A27T, A24T G37T is lower in fraction ligated: 0.0564 for the first, 0.00399 for the second.

First: A24T G37A
Second: A24T G37C
The fraction ligated of the first is lower: 0.00164 for the first, 0.00436 for the second.

Going from A24T G33T to A24T G33A, the fraction ligated rises from 0.0124 to 0.0223.

Going from A24T G33C to A24G A43G, the fraction ligated falls from 0.00781 to 0.00288.

Compared with A24G A43T, A24G A43C is higher in fraction ligated: 0.00328 for the first, 0.0035 for the second.

Going from A24G G28T to A24G G28A, the fraction ligated falls from 0.254 to 0.043.

First: A24G G28C
Second: C26G A31T
The fraction ligated of the first is higher: 0.065 for the first, 0.0387 for the second.

First: C26G A31C
Second: C26G A31G
The fraction ligated of the first is lower: 0.0238 for the first, 0.0731 for the second.

Going from C26A A30T to C26A A30G, the fraction ligated rises from 0.0695 to 0.216.

First: C26A A30C
Second: T25A T32G
The fraction ligated of the first is higher: 0.0463 for the first, 0.00199 for the second.

First: T25A T32A
Second: T25A T32C
The fraction ligated of the first is lower: 0.00329 for the first, 0.00391 for the second.

Going from A24T G42C to A24T G42T, the fraction ligated rises from 0.00191 to 0.00308.

Going from A24T G42A to T25G G37A, the fraction ligated falls from 0.00238 to 0.00178.

Compared with T25G G37T, T25G G37C is higher in fraction ligated: 0.00311 for the first, 0.00475 for the second.

First: A24G A27C
Second: A24G A27G
The fraction ligated of the first is higher: 0.254 for the first, 0.0437 for the second.

Going from A24G A27T to C26A T32C, the fraction ligated falls from 0.231 to 0.0036.

Compared with C26A T32A, C26A T32G is lower in fraction ligated: 0.00455 for the first, 0.00324 for the second.

Compared with A24C G42A, A24C G42C is lower in fraction ligated: 0.00275 for the first, 0.000786 for the second.

First: A24C G42T
Second: T25A G42T
The fraction ligated of the first is higher: 0.00251 for the first, 0.00246 for the second.

Going from T25A G42C to T25A G42A, the fraction ligated falls from 0.00199 to 0.00144.

C26G A44C gave a fraction ligated of 0.00656.
